Changes are numbered by the printed parent chain.
Columns and labels:
[1] = biological target: T1, human Siglec-15 (Acro, Cat. No. SG5-H52H3) (human, UniProt Q6ZMC9 20-263); assay: BLI (Octet RED96e), antibody captured on AHC sensor, 30 nM antigen, 1:1 fit; first assay
T1 construct: Bought reagent used as the analyte in the Octet assay; also called antigen
T1 sequence (looked up): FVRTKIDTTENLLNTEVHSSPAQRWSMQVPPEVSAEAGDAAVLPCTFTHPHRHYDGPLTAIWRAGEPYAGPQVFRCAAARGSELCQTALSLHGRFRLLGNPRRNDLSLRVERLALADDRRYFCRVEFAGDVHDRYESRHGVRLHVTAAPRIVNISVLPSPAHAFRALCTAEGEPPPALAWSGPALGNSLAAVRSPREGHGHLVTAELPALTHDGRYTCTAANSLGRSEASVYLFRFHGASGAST
Method: (§1) Affinity of Siglec-15 binding protein of the present application to human Siglec-15 (Acro, Cat. No.: SG5-H52H3) was determined using Octet RED96e (Fortebio), both of the antigen and the Siglec-15 binding protein of the present application were diluted with 1×PBST (1×PBS: Sangon, B548117-0500; 0.02% Tween 20: Sigma-aldrich, P1379). The antigen is used at a concentration of 30 nM and the Siglec-15 binding protein of the present application is used at a concentration of 33.3 nM.
(§2) First, a sample was added to a 96-well plate (Greiner bio-one, 655209) in a system of 200 μL/well. Software parameters were then set, the plate temperature was set to 30° C., and the frequency at which the standard kinetic signal was collected was 5.0 Hz. Next, the AHC sensor (Fortébio, Cat. No.: 18-0015) was pre-wetted with 1×PBST for 10 min, then the sample was loaded on the machine for detection, with each cycle containing the following steps: 1) immersing the sample in buffer for 60 s; 2) detecting whether the antigen has non-specific binding to the sensor; 3) regenerating in a 10 mM glycine solution at pH 1.7; 4) immersing in buffer for 60 s; 5) immobilizing the Siglec-15 binding protein of the present application on the sensor for 20 s; 6) immersing the sensor in buffer for 180 s; 7) binding the antigen to the Siglec-15 binding protein of the present application for 180 s; 8) dissociating the antigen with Siglec-15 binding protein of the present application for 10 min; and 9) regenerating the sensor.
(§3) The equilibrium dissociation constant (KD) of the Siglec-15 binding protein of the present application was calculated by determining the binding rate constant (kon) and dissociation rate constant (kdis) of the antigen-Siglec-15 binding protein of the present application in a 1:1 binding manner using Data Analysis 12.0 software fromx Fortebio.

[2] = biological target: T1, human Siglec-15 (Acro, Cat. No. …); assay: BLI (Octet RED96e), antibody captured on AHC sensor, 30 nM antigen, 1:1 fit; second assay; design: Response value: unit not given here
Method: as §1, §2, §3

[3] = biological target: T2, full length murine Siglec-15 on murine S15-CT26 cells (murine); assay: flow cytometry on murine S15-CT26 cells, Alexa 488 secondary antibody
T2 construct: whole, on cells; also called murine Siglec-15 on the surface of a cell

[4] = biological target: T3, extracellular domain of monkey Siglec-15 on monkey S15ECD-293T cells (monkey); assay: flow cytometry on monkey S15ECD-293T cells, Alexa 488 secondary antibody
T3 chain: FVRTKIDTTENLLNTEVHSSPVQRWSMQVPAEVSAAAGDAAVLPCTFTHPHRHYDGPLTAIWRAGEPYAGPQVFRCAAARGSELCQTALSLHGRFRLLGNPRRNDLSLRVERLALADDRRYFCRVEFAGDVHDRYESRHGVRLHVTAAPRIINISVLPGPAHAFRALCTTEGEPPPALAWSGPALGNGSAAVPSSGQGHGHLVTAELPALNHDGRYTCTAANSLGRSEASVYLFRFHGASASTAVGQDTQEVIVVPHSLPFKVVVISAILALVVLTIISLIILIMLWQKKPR

[5] = biological target: T1, human Siglec-15 (Acro, Cat. No. …); assay: BLI (Octet RED96e), antibody captured on AHC sensor, 30 nM antigen, 1:1 fit; third assay
Method: as §1, §2, §3

[6] = biological target: T4, extracellular domain of human Siglec-15 with PDGFR transmembrane domain on human S15ECD-293T cells (human, UniProt Q6ZMC9 20-263; P09619 513-561); assay: flow cytometry on human S15ECD-293T cells, Alexa 488 secondary antibody; Ab9 on human S15ECD-293T cells
T4 construct: range 20-263;range 513-561; also called human Siglec-15 on the surface of a cell
From the text: (§4) The purified Siglec-15 binding protein of the present application was identified by flow cytometry for its function to bind to human S15ECD-293T cells of the present application. Human S15ECD-293T cells prepared by the methods of the present application can be expanded to 90% confluence in 15 cm cell culture dishes, media were pipetted completely, the cells were washed once with PBS buffer (Thermo Fisher, 10010049), then treated with enzyme-free cell dissociation buffer (Versene solution, Thermo Fisher, 15040066) and harvested. The cells were washed twice with PBS buffer and counted, the desired quantity of cells was removed for centrifugation, the cells were resuspended to 2×10^6 cells/ml with FACS buffer (PBS with 2% FBS). After incubation at room temperature for 15 min, the cell suspension was added to a U-shaped 96-well plate (Corning, 3798) at 50 μL/well. The Siglec-15 binding proteins of the present application were serially diluted in FACS buffer, the dilution was added to the above 96-well plate at 50 μL/well and incubated at 4° C. for 1 h. […] The cells were resuspended in 30 μL/well FACS buffer, and detected and analyzed by flow cytometry intellycite plus (Sartorius). […]

[7] = biological target: T4, extracellular domain of human Siglec-15 …; assay: flow cytometry on human S15ECD-293T cells, Alexa 488 secondary antibody; Ab15 on human S15ECD-293T cells
From the text: as §4

B1: Ab0, purified Siglec-15 binding protein in the form of IgG1 (antibody, V domains shown)
VH: EVQLLESGGGLVQPGGSLRLSCAASGFTFSSYAMSWVRQAPGKGLEWVSTISGGGGSTYYADSVKGRFTISRDNSKNTLYLQMNSLRAEDTAVYYCAKAIGSSWYSDAFDLWGQGTMVTVSS
VL: DIQMTQSPSSVSASVGDRVTITCRASQDISSWLAWYQQKPGKAPKLLIYVASSLQSGVPSRFSGSGSGTDFTLTISSLQPEDFATYYCQQSYSIPYTFGQGTKLEIKR
B1 showed a Kd [1] of 0.109 nM, a koff [1] of 3.24e-05 s⁻¹ and a kon [1] of 298000 M⁻¹ s⁻¹.

B2: Ab9, purified Siglec-15 binding protein in the form of IgG1 (antibody, V domains shown)
VH: B1 VH
VL: B1 VL with S31D
notes: Expressed in ExpiCHO cells in the form of IgG1
B2 gave a Kd [2] of 0.0873 nM, a Response value [2] of 0.259 and a koff [2] of 3.88e-05 s⁻¹. It also gave a kon [2] of 445000 M⁻¹ s⁻¹, an EC50 [3] of 3.25 nM and an EC50 [4] of 0.922 nM. The Kd [5] was 0.0691 nM, the koff [5] was 3.59e-05 s⁻¹ and the kon [5] was 519000 M⁻¹ s⁻¹. It also gave an EC50 [6] of 1.52 nM.

B3: Ab15, purified Siglec-15 binding protein in the form of IgG1 (antibody, V domains shown)
VH: B1 VH with S52T, G56E
VL: B1 VL with S53Y, L54I, Q55H
notes: as for B2
B3 was tested, and the Kd [2] was 0.073 nM, the Response value [2] was 0.361 and the koff [2] was 3.93e-05 s⁻¹. The kon [2] was 538000 M⁻¹ s⁻¹, the EC50 [3] was 1.83 nM and the EC50 [4] was 0.475 nM. The Kd [5] was 0.0916 nM, the koff [5] was 4.35e-05 s⁻¹ and the kon [5] was 475000 M⁻¹ s⁻¹. For the same binder, the EC50 [7] was 0.475 nM.

Reference: patent publication US20240124576A1 (SHANGHAI JEMINCARE PHARMACEUTICAL, published 2024)
